In paper PMC1277809:
Where two headings read alike, the source gives them in different places.

Legend:
Experiment in all cases: competition EMSA
LexA (DinR) wild type [1] = target: T1, LexA (DinR) wild type (Bacillus subtilis, UniProt P31080 1-205)
T1 sequence: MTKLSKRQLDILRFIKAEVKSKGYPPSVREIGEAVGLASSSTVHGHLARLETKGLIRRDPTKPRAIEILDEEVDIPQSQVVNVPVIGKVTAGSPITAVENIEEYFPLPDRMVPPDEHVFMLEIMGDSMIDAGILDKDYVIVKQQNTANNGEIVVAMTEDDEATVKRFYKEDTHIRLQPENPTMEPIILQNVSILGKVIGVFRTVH

LexA (DinR) wild type [2] = target: T1, LexA (DinR) wild type; remark: listed apart in the source
LexA (DinR) wild type [3] = target: T1, LexA (DinR) wild type; remark: listed apart in the source
LexA (DinR) wild type [4] = target: T1, LexA (DinR) wild type; remark: listed apart in the source
LexA (DinR) wild type [5] = target: T1, LexA (DinR) wild type; remark: listed apart in the source
LexA (DinR) wild type [6] = target: T1, LexA (DinR) wild type; remark: listed apart in the source
LexA (DinR) wild type [7] = target: T1, LexA (DinR) wild type; remark: listed apart in the source
LexA (DinR) wild type [8] = target: T1, LexA (DinR) wild type; remark: listed apart in the source
LexA (DinR) wild type [9] = target: T1, LexA (DinR) wild type; remark: listed apart in the source
LexA (DinR) wild type [10] = target: T1, LexA (DinR) wild type; remark: listed apart in the source
LexA (DinR) wild type [11] = target: T1, LexA (DinR) wild type; remark: listed apart in the source
LexA (DinR) wild type [12] = target: T1, LexA (DinR) wild type; remark: listed apart in the source
LexA (DinR) wild type [13] = target: T1, LexA (DinR) wild type; remark: listed apart in the source
LexA (DinR) wild type [14] = target: T1, LexA (DinR) wild type; remark: listed apart in the source
LexA (DinR) wild type [15] = target: T1, LexA (DinR) wild type; remark: listed apart in the source

B1: recA op A6G (dsDNA)
DNA 1: GGGGGGCGAATGTGCGTTCGCCCCCC
DNA 2: GGGGGGCGAACGCACATTCGCCCCCC
- Ki (LexA (DinR) wild type [1]): 6.4 nM

B2: recA op T5C,A6C (dsDNA)
DNA 1: GGGGGGCGAACCTGCGTTCGCCCCCC
DNA 2: GGGGGGCGAACGCAGGTTCGCCCCCC
- Ki (LexA (DinR) wild type [2]): 0.56 nM

B3: recA op T5C,A6T (dsDNA)
DNA 1: GGGGGGCGAACTTGCGTTCGCCCCCC
DNA 2: GGGGGGCGAACGCAAGTTCGCCCCCC
- Ki (LexA (DinR) wild type [3]): 0.49 nM

B4: recA op G2A,T5C (dsDNA)
DNA 1: GGGGGGCAAACATGCGTTCGCCCCCC
DNA 2: GGGGGGCGAACGCATGTTTGCCCCCC
- Ki (LexA (DinR) wild type [4]): 5.2 nM

B5: recA op T5C,G8A,C9T (preferred) (dsDNA)
DNA 1: GGGGGGCGAACATATGTTCGCCCCCC
DNA 2: GGGGGGCGAACATATGTTCGCCCCCC
- Ki (LexA (DinR) wild type [5]): 0.17 nM

B6: recA op C1G,T5C (dsDNA)
DNA 1: GGGGGGGGAACATGCGTTCGCCCCCC
DNA 2: GGGGGGCGAACGCATGTTCCCCCCCC
- Ki (LexA (DinR) wild type [6]): 1 nM

B7: recA op C1A (dsDNA)
DNA 1: GGGGGGAGAATATGCGTTCGCCCCCC
DNA 2: GGGGGGCGAACGCATATTCTCCCCCC
- Ki (LexA (DinR) wild type [7]): 11.4 nM

B8: recA op T7A (dsDNA)
DNA 1: GGGGGGCGAATAAGCGTTCGCCCCCC
DNA 2: GGGGGGCGAACGCTTATTCGCCCCCC
- Ki (LexA (DinR) wild type [8]): 17.1 nM

B9: recA op T7C (dsDNA)
DNA 1: GGGGGGCGAATACGCGTTCGCCCCCC
DNA 2: GGGGGGCGAACGCGTATTCGCCCCCC
- Ki (LexA (DinR) wild type [9]): 7.8 nM

B10: recA op A6C (dsDNA)
DNA 1: GGGGGGCGAATCTGCGTTCGCCCCCC
DNA 2: GGGGGGCGAACGCAGATTCGCCCCCC
- Ki (LexA (DinR) wild type [10]): 20 nM

B11: recA op T5C,T7A (dsDNA)
DNA 1: GGGGGGCGAACAAGCGTTCGCCCCCC
DNA 2: GGGGGGCGAACGCTTGTTCGCCCCCC
- Ki (LexA (DinR) wild type [11]): 0.62 nM

B12: recA op A6T (dsDNA)
DNA 1: GGGGGGCGAATTTGCGTTCGCCCCCC
DNA 2: GGGGGGCGAACGCAAATTCGCCCCCC
- Ki (LexA (DinR) wild type [12]): 11.5 nM

B13: recA op C1G (dsDNA)
DNA 1: GGGGGGGGAATATGCGTTCGCCCCCC
DNA 2: GGGGGGCGAACGCATATTCCCCCCCC
- Ki (LexA (DinR) wild type [13]): 53 nM

B14: recA op T5C (dsDNA)
DNA 1: GGGGGGCGAACATGCGTTCGCCCCCC
DNA 2: GGGGGGCGAACGCATGTTCGCCCCCC
- Ki (LexA (DinR) wild type [14]): 0.22 nM

B15: recA op C1A,T5C (dsDNA)
DNA 1: GGGGGGAGAACATGCGTTCGCCCCCC
DNA 2: GGGGGGCGAACGCATGTTCTCCCCCC
- Ki (LexA (DinR) wild type [15]): 0.42 nM
